Data reported in patent US20260152527A1 (SIGHTSTREAM BIOTHERAPEUTICS, published 2026).
Starred links: 1 amine or outer side, 2 acyl side, 3 side chain; linkers in the order of their positions; H or OH if unused. Positions of bridges follow the written chain, without caps; N, C: chain ends. Non-standard residues stand in square brackets, D forms with d. *: point of attachment. Hgln = homoglutamine, NC(=O)CCC[C@H](N[*:1])C(=O)[*:2]; Benzoyl(3,5-(OH)2) = O=C(c1cc(O)cc(O)c1)*; Lys(N3) = [N-]=[N+]=NCCCC[C@H](N)C(=O)O; dPhe(4-F) = N[C@H](Cc1ccc(F)cc1)C(=O)O; Nle = CCCC[C@H](N)C(=O)O; Pra = C#CC[C@H](N)C(=O)O

Key:
Experiment in all cases: cell-based or functional assay
[1] = target: T1, human recombinant MC5R (CHO-K1/Ga15 stable cell line, GenScript) (human, UniProt P33032 1-325)
T1 sequence (P33032 whole entry): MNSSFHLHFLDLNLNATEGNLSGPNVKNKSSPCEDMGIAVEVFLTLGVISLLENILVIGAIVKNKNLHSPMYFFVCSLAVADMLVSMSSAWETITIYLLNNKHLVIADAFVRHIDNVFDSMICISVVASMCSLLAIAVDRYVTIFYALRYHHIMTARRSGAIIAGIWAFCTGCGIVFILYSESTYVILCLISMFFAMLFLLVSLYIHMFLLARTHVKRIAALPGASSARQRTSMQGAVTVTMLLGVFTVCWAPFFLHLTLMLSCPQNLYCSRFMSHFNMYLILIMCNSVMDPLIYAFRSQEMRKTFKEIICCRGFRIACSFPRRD

[2] = target: T2, human recombinant MC1R (CHO-K1 stable cell line, GenScript) (human, UniProt Q01726 1-317)
T2 sequence (Q01726 whole entry): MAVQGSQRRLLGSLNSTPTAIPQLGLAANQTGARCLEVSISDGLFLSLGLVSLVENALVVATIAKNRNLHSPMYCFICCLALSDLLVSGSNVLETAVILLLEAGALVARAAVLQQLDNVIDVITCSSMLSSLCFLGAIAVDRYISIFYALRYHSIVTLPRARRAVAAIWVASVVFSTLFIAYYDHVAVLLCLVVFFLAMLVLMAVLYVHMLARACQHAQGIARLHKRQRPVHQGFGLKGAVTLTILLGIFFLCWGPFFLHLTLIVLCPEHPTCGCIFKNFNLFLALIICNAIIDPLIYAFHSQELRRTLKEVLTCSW

[3] = target: T3, human recombinant MC4R (CHO-K1/Gα15 stable cell line, GenScript) (human, UniProt P32245 1-332)
T3 sequence (P32245 whole entry): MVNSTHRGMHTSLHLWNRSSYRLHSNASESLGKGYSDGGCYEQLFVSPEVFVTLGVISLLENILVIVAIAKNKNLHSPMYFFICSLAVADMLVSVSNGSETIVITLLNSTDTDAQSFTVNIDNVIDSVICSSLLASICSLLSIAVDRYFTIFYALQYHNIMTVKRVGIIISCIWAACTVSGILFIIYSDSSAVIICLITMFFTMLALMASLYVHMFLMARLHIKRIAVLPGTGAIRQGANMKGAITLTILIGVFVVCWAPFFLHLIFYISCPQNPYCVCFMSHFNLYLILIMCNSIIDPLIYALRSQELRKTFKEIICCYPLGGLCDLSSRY

[4] = target: T1, human recombinant MC5R (CHO-K1/Ga15 …); remark: listed apart in the source
[5] = target: T2, human recombinant MC1R (CHO-K1 stable …); remark: listed apart in the source
[6] = target: T3, human recombinant MC4R (CHO-K1/Gα15 …); remark: listed apart in the source

B1: KR-071 (peptide)
peptide: {Benzoyl(3,5-(OH)2)}-[Nle][Lys(N3)]H[dPhe(4-F)]RW[Pra][Hgln]-NH2
modifications: triazole 2-7; not fully specified; printed as HyBA-Nle-[Lys(N3)-His-Dphe(4-F)-Arg-Trp-Pra]-Hgln-NH2
Question: How did the “MC5R IC50” value [1] turn out when B1 was run?
Answer: 73.9 nM

Question: What about the “MC1R IC50” value [2] of the same binder?
Answer: 0.0023 nM

Question: And the “MC4R IC50” value [3]?
Answer: 103 nM

Question: What about the “EC50(nM)-MC5R” value [4] of the same binder?
Answer: 73.9 nM

Question: What about the “EC50(nM)-MC1R” value [5] of the same binder?
Answer: 0.0023 nM

Question: And the “EC50(nM)-MC4R” value [6]?
Answer: 103 nM

B2: KR-072 (peptide)
peptide: {Benzoyl(3,5-(OH)2)}-[Nle][Lys(N3)]H[dPhe(4-F)]RW[Pra]-NH2
modifications: triazole 2-7; not fully specified; printed as HyBA-Nle-[Lys(N3)-His-Dphe(4-F)-Arg-Trp-Pra]-NH2
Question: With B2 as the binder, how does the “MC5R IC50” value [1] read?
Answer: 78 nM

Question: What about the “MC1R IC50” value [2] of the same binder?
Answer: 0.0019 nM

Question: And the “MC4R IC50” value [3]?
Answer: 98.6 nM

Question: What about the “EC50(nM)-MC5R” value [4] of the same binder?
Answer: 78 nM

Question: What about the “EC50(nM)-MC1R” value [5] of the same binder?
Answer: 0.0019 nM

Question: And the “EC50(nM)-MC4R” value [6]?
Answer: 98.6 nM

B3: KR-073 (peptide)
peptide: {Benzoyl(3,5-(OH)2)}-[Nle][Lys(N3)]H[dF]RW[Pra]-NH2
modifications: triazole 2-7; not fully specified; printed as HyBA-Nle-[Lys(N3)-His-DPhe-Arg-Trp-Pra]-NH2
Question: Which results are given for B3?
Answer: MC5R IC50 [1]: 134 nM; MC1R IC50 [2]: 0.0041 nM; MC4R IC50 [3]: 13.9 nM; EC50(nM)-MC5R [4]: 134 nM; EC50(nM)-MC1R [5]: 0.0041 nM; EC50(nM)-MC4R [6]: 13.9 nM

B4: KR-009 (peptide)
peptide: Ac-[Nle][Lys(N3)]H[dF]RW[Pra]-NH2
modifications: bridge 2-7; not fully specified (bridges); printed as Ac-Nle-[Lys(N3)-His-DPhe-Arg-Trp-Pra]-NH2
Question: What does the source list for B4?
Answer: MC5R IC50 [1]: 140 nM; MC1R IC50 [2]: 0.0109 nM; MC4R IC50 [3]: 45.7 nM; EC50(nM)-MC5R [4]: 140 nM; EC50(nM)-MC1R [5]: 0.011 nM; EC50(nM)-MC4R [6]: 45.7 nM
